Substrate in the series: O=S(O)O
Description: steady-state kinetics, Lineweaver-Burk plot. It is filed as biochemical, Zea mays. The note with it: 400 μM NADPH as electron donor (printed "electron acceptor"); sulfite 2.5-400 μM; 1.0 μg enzyme.

B1: ZmSiR (Zea mays) (protein)
chain: MSGAIGGAEVHGFRGAAAQLPRSRVLGRPIRVAPPAAARPGGASAGSIRAVSAPAKKDASEVKRSKVEIIKEKSNFLRYPLNEELVSEAPNINESAVQLIKFHGSYQQTDRDVRGQKNYSFMLRTKNPCGKVPNQLYLAMDTLADEFGIGTLRLTTRQTFQLHGVLKKNLKTVLSTVIKNMGSTLGACGDLNRNVLAPAAPYVKKDILFAQQTAENIAALLTPQSGAYYDLWVDGEKIMSAEEPPEVTKARNDNSHGTNFPDSPEPIYGTQYLPRKFKVAVTAAGDNSVDILTNDIGVVVVSDDAGEPIGFNIYVGGGMGRTHRVETTFPRLADPLGYVPKEDILYAIKAIVVTQRENGRRDDRKYSRMKYMIDRWGIDRFRAEVEKYYGKKFESFRPLPEWQFNSYLGWQEQGDGKLFYGVHVDNGRVGGQAKKTLREIIEKYNLDVSITPNQNLILCGIDQAWREPITTALAQAGLLEPKDVDPLNLTAMACPALPLCPLAQTEAERGILPILKRIRAVFNKVGIKDSESVVVRITGCPNGCARPYMAELGFVGDGPKSYQIWLGGTPNQSTLAESFMDKVKLDDIEKVLEPLFTYWNGTRQEGESFGSFTNRTGFDKLKEVVNKWAESPSAA
In general, Km refers to the substrate concentration at which the rate is half of its maximum. Take B1: the Km amounted to 5.32 ± 0.26 µM.
